Results on 1 protein are retold here after article PMC9870871, “Investigating the effects of cyclic topology on the performance of a plastic degrading enzyme for polyethylene terephthalate degradation” (Scientific Reports, 2023).

Substrate in the series: CC(=O)Oc1ccc([N+](=O)[O-])cc1
In words: purified protein. The format is biochemical, Pseudideonella sakaiensis. As to conditions: 50 mM Na2HPO4 pH 7.5, 30 °C, 5% v/v DMSO, 10 nM enzyme, 0-5.0 mM substrate.

B1: IsPETase-WT (Pseudideonella sakaiensis) (protein)
chain: QTNPYARGPNPTAASLEASAGPFTVRSFTVSRPSGYGAGTVYYPTNAGGTVGAIAIVPGYTARQSSIKWWGPRLASHGFVVITIDTNSTLDQPSSRSSQQMAALRQVASLNGTSSSPIYGKVDTARMGVMGWSMGGGGSLISAANNPSLKAAAPQAPWDSSTNFSSVTVPTLIFACENDSIAPVNSSALPIYDSMSRNAKQFLEINGGSHSCANSGNSNQALIGKKGVAWMKRFMDNDTRYSTFACENPNSTRVSDFRTANCS
notes: linear wild-type enzyme, synthetic gene in pET-28a(+) or pET-21b(+), E. coli Shuffle T7 Express, Ni-NTA and SEC; monomer
With B1, the Km amounted to 2700 ± 300 µM.

What is called Km is the concentration of substrate that gives half-maximal velocity.
